Source: patent publication US6573076B1, “Gene, group of genes, and novel β-glucosidase” (Ajinomoto Co., Inc., priority 1997, dated 2003)

What was measured:
[1] = biological target: T1, β-glucosidase (G3ase) (Komagataeibacter sucrofermentans, UniProt O24749); assay: Reactivity of G3ase with cellulosic substrates (glucose produced); type: biochemical, Acetobacter xylinum subsp. sucrofermentans BPR 2001
[2] = biological target: T1, β-glucosidase (G3ase); type: biochemical, Acetobacter xylinum subsp. sucrofermentans BPR 2001
[3] = type: physicochemical, Acetobacter xylinum subsp. sucrofermentans BPR 2001
From the text: The pH stability of β-glucosidase (G3ase) was studied. […] An optimum pH was about 5.5. The thermal stability of β-glucosidase (G3ase) was also studied.

[4] = Isoelectric point of β-glucosidase (G3ase) by IEF-PAGE; type: physicochemical, Acetobacter xylinum subsp. sucrofermentans BPR 2001
From the text: The molecular weight of β-glucosidase (G3ase) determined by SDS-PAGE was about 81,200 (FIG. 2). Its isoelectric point (pI) determined by IEF-PAGE was about 6.0 (FIG. 3).

[5] = Specific activity of purified β-glucosidase (G3ase), glucose release from cellotriose; type: biochemical, Acetobacter xylinum subsp. sucrofermentans BPR 2001; settings: purified sample; 1 U = 1 μmol glucose from G3 at 30° C. for 2 hr
Protocol: Acetobacter xylinum subsp. sucrofermentans BPR 2001 strain was cultured in CSL-Fru medium using a jar fermenter (inner volume: 3 L, culture medium volume: 1.8 L) at 30° C. and pH5 for 68 hours. The resulting culture medium (about […] in total) was subjected to centrifugation to give its supernatant (3,600 ml). The resulting supernatant was subjected to salting-out with 60%-saturated ammonium sulfate, and the resulting precipitate was collected by centrifugation. The collected precipitate was solubilized into distilled water of 352 ml and dialyzed against distilled water (15 L). The resulting precipitate was collected and extracted three times with 20 mM sodium acetate buffer (pH5.5) containing 0.15 M NaCl. G3ase activity was found in the resulting extract. The extract was subjected to CM-Toyopearl 650M column (Tosoh Co. Ltd.; 3.2 cm in diameter, 13.3 cm in length) equilibrated with 20 mM sodium acetate buffer (pH5.5) containing 0.15 M NaCl to absorb the G3ase activity. […]
After reaction at 30° C. for 2 hr, a reaction solution (300 μl) of a glucose-measuring kit (Glucose CII test Wako: Wako Pure Chemical Industries, Ltd.) was added to the mixture, and reacted for 15 min at a room temperature, followed by the determination of an amount of glucose based on absorbance at 505 nm.

[6] = substrate: OC[C@H]1O[C@@H](O[C@H]2[C@H](O)[C@@H](O)[C@H](O[C@H]3[C@H](O)[C@@H](O)[C@H](O[C@H]4[C@H](O)[C@@H](O)[C@H](O[C@H]5[C@H](O)[C@@H](O)C(O)O[C@@H]5CO)O[C@@H]4CO)O[C@@H]3CO)O[C@@H]2CO)[C@H](O)[C@@H](O)[C@@H]1O; assay: purified protein, by the assay type; type: biochemical, Acetobacter xylinum subsp. sucrofermentans BPR 2001; settings: other: substrate of G3ase
[7] = substrate: OC[C@H]1O[C@@H](O[C@H]2[C@H](O)[C@@H](O)[C@H](O[C@H]3[C@H](O)[C@@H](O)[C@H](O[C@H]4[C@H](O)[C@@H](O)C(O)O[C@@H]4CO)O[C@@H]3CO)O[C@@H]2CO)[C@H](O)[C@@H](O)[C@@H]1O; assay: purified protein, by the assay type; settings: other: substrate of G3ase
[8] = substrate: OC[C@H]1O[C@@H](O[C@H]2[C@H](O)[C@@H](O)[C@H](O[C@H]3[C@H](O)[C@@H](O)C(O)O[C@@H]3CO)O[C@@H]2CO)[C@H](O)[C@@H](O)[C@@H]1O; assay: purified protein, by the assay type; settings: other: substrate of G3ase
[9] = substrate: OC[C@H]1O[C@@H](O[C@H]2[C@H](O)[C@@H](O)[C@H](O[C@H]3[C@H](O)[C@@H](O)[C@H](O[C@H]4[C@H](O)[C@@H](O)[C@H](O[C@H]5[C@H](O)[C@@H](O)[C@H](O[C@H]6[C@H](O)[C@@H](O)C(O)O[C@@H]6CO)O[C@@H]5CO)O[C@@H]4CO)O[C@@H]3CO)O[C@@H]2CO)[C@H](O)[C@@H](O)[C@@H]1O; assay: purified protein, by the assay type; settings: other: substrate of G3ase

For cellobiose [G2], which “percent ratio of produced glucose against total substrate added” value ([1]; reaction time 2 hr) is on record?
The value was 0.4%.

What about the “percent ratio of produced glucose against total substrate added” value ([1]; reaction time 24 hr) of the same molecule?
Its value is 5.2%.

What about the “degrading activity of G3ase compared to the other cellooligosaccharides (in words)” value [2] of the same molecule?
The value was “very low”.

What about the “ko (molecular activity)” value ([2]; substrate of G3ase) of the same molecule?
The value was 3.8 s⁻¹.

B1: β-glucosidase (G3ase): β-glucosidase purified from Acetobacter xylinum subsp. sucrofermentans BPR 2001, amino acid sequence SEQ ID NO:7 (protein, listed as Acetobacter xylinum)
chain: MRLSRKIFLLSAVACGMALAQAPAFARHAHDGGGDQADARARQVLASMSLEDKMSLLFSVDGGGFNGSVAPPGGLGSAAYLRAPQGSGLPDLQISDAGLGVRNPAHIRRNGEAVSLPSGQSTASTWDMDMARQAGVMIGREAWQSGFNILLGGGADLTRDPRGGRNFEYAGEDPLQTGRMVGSTIAGVQSQHVISTLKHYAMNDLETSRMTMSADIDPVAMRESDLLGFEIALETGHPGAVMCSYNRVNDLYACENPYLLNKTLKQDWHYPGFVMSDWGATHSSARAALAGLDQESAGDHTDARPYFRTLLAADVKAGRVPEARINDMAERVVRALFAAGLVDHPAQRGPLDVVTDTLVAQKDEEEGAVLLRNQGNILPLSPTARIAVIGGHADAGVISGGGSSQVDPIGGEAVKGPGKKEWPGDPVYFPSSPLKAMQAEAPGARITYDPGTSIASAVRAARAADVVVVYATQFTFEGMDAPSMHLDDNADALITAVAAANPRTVVVMETGDPVLMPWNSSVAGVLEAWFPGSGGGPAIARLLFGKVAPSGHLTMTFPQAESQLAHPDIAGVTADNVFEMQFHTDQELVYDEGSDVGYRWFDRNHFKPLYPFGYGLTYTTFSTDGLKVTERHGQVTATFNVHNTGTRAGVDVPQVYVGLPDGGARRLAGWQRISLAPGESRQVSVQLEPRLLAHFDGKHDRWSVPSGTFRVWLASCATDDSQQTTMHLHGRTMAP
modifications: n at positions 15741 and 15767 may be a, g, t, or c
With B1 as the molecule, how does the “optimum pH” value [3] read?
Its value is “about 5.5”.

What about the optimum temperature [3] of the same molecule?
Its optimum temperature is “about 40 °C”.

What about the “temperature at which inactivated” value ([3]; 30-minute treatment at pH 5.5) of the same molecule?
Its value is no less than 50 °C.

And the “temperature at which stable” value ([3]; 30-minute treatment at pH 5.5)?
Its value is no more than 30 °C.

What about the “remaining activity (pH stability)” value ([3]; 3 h) of the same molecule?
The value was no less than 80%.

What about the “isoelectric point (pI)” value [4] of the same molecule?
The value was “about 6.0”.

And the Specific activity [5]?
Its Specific activity is 840 U/mg-portein.

B2: β-glucosidase (G3ase) (Komagataeibacter sucrofermentans) (protein)
chain: RHAHDGGGDQADARARQVLASMSLEDKMSLLFSVDGGGFNGSVAPPGGLGSAAYLRAPQGSGLPDLQISDAGLGVRNPAHIRRNGEAVSLPSGQSTASTWDMDMARQAGVMIGREAWQSGFNILLGGGADLTRDPRGGRNFEYAGEDPLQTGRMVGSTIAGVQSQHVISTLKHYAMNDLETSRMTMSADIDPVAMRESDLLGFEIALETGHPGAVMCSYNRVNDLYACENPYLLNKTLKQDWHYPGFVMSDWGATHSSARAALAGLDQESAGDHTDARPYFRTLLAADVKAGRVPEARINDMAERVVRALFAAGLVDHPAQRGPLDVVTDTLVAQKDEEEGAVLLRNQGNILPLSPTARIAVIGGHADAGVISGGGSSQVDPIGGEAVKGPGKKEWPGDPVYFPSSPLKAMQAEAPGARITYDPGTSIASAVRAARAADVVVVYATQFTFEGMDAPSMHLDDNADALITAVAAANPRTVVVMETGDPVLMPWNSSVAGVLEAWFPGSGGGPAIARLLFGKVAPSGHLTMTFPQAESQLAHPDIAGVTADNVFEMQFHTDQELVYDEGSDVGYRWFDRNHFKPLYPFGYGLTYTTFSTDGLKVTERHGQVTATFNVHNTGTRAGVDVPQVYVGLPDGGARRLAGWQRISLAPGESRQVSVQLEPRLLAHFDGKHDRWSVPSGTFRVWLASCATDDSQQTTMHLHGRTMAP
Which Km [6] does the source give for B2 here?
The Km was 1490 µM.

And the kcat [6]?
Its kcat is 32.1 s⁻¹.

And the Km [7]?
Its Km is 2100 µM.

And the kcat [7]?
Its kcat is 38.9 s⁻¹.

What about the Km [8] of the same molecule?
The Km was 3730 µM.

What about the kcat [8] of the same molecule?
Its kcat is 29.8 s⁻¹.

What about the Km [9] of the same molecule?
Its Km is 1310 µM.

And the kcat [9]?
Its kcat is 31.0 s⁻¹.
